Laboratory results from the supplement of paper PMC12764529.
± gives the half width of the 95% confidence interval.

Key:
[1] = folding stability dG unfold from trypsin proteolysis; higher = more stable
How it was run: (§1)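 Unfolding free energy was derived, per protease or combined, against a sequence-predicted unfolded-state K50 and a shared folded-state K50, starting from K50 inferred by Bayesian fitting of sequencing counts. Digestion with trypsin and chymotrypsin was carried out on designed mini-proteins under 80 residues without cysteine in a PA-tagged cDNA display construct. Only designs with AlphaFold2 dimer inter-PAE above 15 were kept.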

[2] = folding stability dG unfold from chymotrypsin proteolysis; higher = more stable
How it was run: as §1

[3] = folding stability dG unfold (combined trypsin and chymotrypsin); higher = more stable
How it was run: as §1

Sequence	folding stability dG unfold [1] [kcal/mol]	folding stability dG unfold [2] [kcal/mol]	folding stability dG unfold [3] [kcal/mol]
SAGGSAGGSAGIEKTKDGVYKITIYNPSTGKKTEIYVPSSAPYVAGPVVLELVKNKAIIESAGGSAGGSAGG [r11_538_TrMRF]	-0.296 ± 0.074	0.802 ± 0.11	0.47 ± 0.055
SAGGSAGGSAGIIVRLPDGGWLIIDITMTRKYPPPDGKPKKVEFEFTIIISPKSGKIRIVSAGGSAGGSAGG [r11_271_TrROS]	2.94 ± 0.2	3.21 ± 0.15	3.01 ± 0.26
SAGGSAGGSAGIKTESLEEALEYVKKTFPPGTKVEIVVEGDGKPIKITVTVLENGEIKVESAGGSAGGSAGG [r17_69_TrMRF]	3.97 ± 0.16	3.24 ± 0.036	3.58 ± 0.12
SAGGSAGGSAGIRIKAFPGWKIVDIEPNPPGTIIIRYPNWVFQIRIRPNGEIEIRIVPLDSAGGSAGGSAGG [r11_612_TrROS]	3.09 ± 0.093	3.64 ± 0.055	3.49 ± 0.083
SAGGSAGGSAGIRIYWDPENGWYRVKYPDPDGKPVDEHPMPPDQLPEFLQAGNIEVEPWPSAGGSAGGSAGG [r11_159_TrROS]	0.759 ± 0.035	1.27 ± 0.081	1 ± 0.095
SAGGSAGGSAGITIRDPDNGMWIQIEKTPDMFKVEIEMPGNGKKVEFTFPPGQSLDDLKISAGGSAGGSAGG [r11_772_TrROS]	0.508 ± 0.037	0.473 ± 0.085	0.571 ± 0.12
SAGGSAGGSAGKAVFIRELENGAIVLAVPFPDSVRLRVFPLTPGGEVESVEEFTLAPEELSAGGSAGGSAGG [r11_88_TrMRF]	-0.0256 ± 0.16	0.842 ± 0.088	0.591 ± 0.08
SAGGSAGGSAGKEIKVETEENPNGQHPVKIEIYDGGNPRPIEFPVDSPEDAEDWAKELLKSAGGSAGGSAGG [r11_560_TrROS]	-0.595 ± 0.074	0.148 ± 0.031	-0.0496 ± 0.079
SAGGSAGGSAGKEKEIIIKVKVTKDKNGKYKIDIEELKKLFPNVKITEIKDNYIKIKVKKSAGGSAGGSAGG [r11_771_TrROS_Hall]	1.63 ± 0.1	2.11 ± 0.13	1.75 ± 0.31
SAGGSAGGSAGKHTFNIKDIEIKEVVPSNNYYVVRIEMTFPDGKEHKFTFYFPPGDPITLSAGGSAGGSAGG [r11_211_TrROS]	1.97 ± 0.055	2.87 ± 0.085	2.53 ± 0.14
SAGGSAGGSAGKIEVTYNKENNTFTVKIVNKKTKKVITIKVKAKSKEDALKKVKELLEKLSAGGSAGGSAGG [r17_386_TrROS_Hall]	2.79 ± 0.17	3.32 ± 0.078	3.11 ± 0.19
SAGGSAGGSAGKIIEELKKKGYKVEVIKDKKTKKYYVKITVTDKKGNKKTITIPLKDIKPSAGGSAGGSAGG [r17_311_TrROS_Hall]	2.8 ± 0.23	4 ± 0.21	3.71 ± 0.35
SAGGSAGGSAGKIIFERDEDGYLRAIVYDPKTKEVYVRRFKVKDGKITEVETERINLKDLSAGGSAGGSAGG [r11_167_TrROS_Hall]	2.06 ± 0.049	2.37 ± 0.078	2.21 ± 0.1
SAGGSAGGSAGKIKITEIHFMPNGMVVVEIEFEDPDGETFNLTVVFRFDPNGKIRDIHIMSAGGSAGGSAGG [r11_709_TrROS]	3.35 ± 0.15	4.35 ± 0.07	4.22 ± 0.17
SAGGSAGGSAGKIKIVKDEKTGEYKLVVYDKNGKKVKTITLSKEELEKNPELLKKLLEELSAGGSAGGSAGG [r17_496_TrROS_Hall]	3.52 ± 0.27	4.56 ± 0.15	4.51 ± 0.17
SAGGSAGGSAGKIVILVEPSVEELKAAAEALPGAKVTLEEVEVDGRKYLLATIELPPELLSAGGSAGGSAGG [r17_542_TrROS_Hall]	2.17 ± 0.074	2.27 ± 0.033	2.23 ± 0.07
SAGGSAGGSAGKKIIIKVKPNMTPEEIAKKLAEELGVEVEIKKVKKLKNGELYIEIEIKPSAGGSAGGSAGG [r17_222_TrROS_Hall]	3.09 ± 0.17	2.48 ± 0.19	2.82 ± 0.3
